Assay results as given in article PMC2173386 (The Journal of Cell Biology, 2002).

T1: His-p47(171–270) (UniProt O35987 171-270)
T1 sequence (looked up): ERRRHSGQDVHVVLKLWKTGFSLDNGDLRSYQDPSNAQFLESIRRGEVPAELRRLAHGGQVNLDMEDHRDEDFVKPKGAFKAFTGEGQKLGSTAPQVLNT

B1: GST-tagged p97(1–74) (domain or fragment, rat, UniProt P46462 1-74, looked up)
chain: MASGADSKGDDLSTAILKQKNRPNRLIVDEAINEDNSVVSLSQPKMDELQLFRGDTVLLKGKKRREAVCIVLSD
B2: GST-tagged p47(171–270) (domain or fragment, UniProt O35987 171-270, looked up)
chain: T1 sequence (looked up)
B3: GST-tagged p47(271–370) (domain or fragment, UniProt O35987 271-370, looked up)
chain: SSPAQQAENEAKASSSILINEAEPTTNIQIRLADGGRLVQKFNHSHRISDIRLFIVDARPAMAATSFVLMTTFPNKELADENQTLKEANLLNAVIVQRLT
B4: His-tagged VCIP135(744–1221) (domain or fragment, rat, UniProt Q8CF97 744-1221, looked up)
chain: TVSPSTIRDGPSSAPATPTKAPYSPTTSKEKKIRITTNDGRQSMVTLKSSTTFFELQESIAREFNIPPYLQCIRYGFPPKELMPPQAGMEKEPVPLQHGDRITIEILKGKAEGGPSTAAHSAHTVRQEEIAVTGKLSSKELQEQADKEMYSLCLLATLMGEDVWSYAKGLPHMFQQGGVFYNIMKKTMGMADGKHCTFPHLPGKTFVYNASEDRLELCVDAAGHFPIGPDVEDLVKEAVSQVRAEATTRSRESSPSHGLLKLGSGGVVKKKSEQLHNVTAFQGKGHSLGTASSNPHMDPRARETLAVRKHNTGTDFSNSSIKTEPPVFTAASSNSELIRIAPGVVTMRDGRQIDPDVVEAQRKKLQEMVSSIQASMDKHLRDQSTEQTPSDLSQRKVEAVSSSVRPGNLQTGLPESFSLTGGTENLNTETTDSRVADVLGAAFATRSKAQKENSMEEPEEMDSQDAETTNTTEPMDHS

Experiments:
His-p47(171–270) = target: T1, His-p47(171–270); assay: pull-down
[1] = target: T2, p97 (valosin-containing protein) (rat, UniProt P46462 1-806); assay: pull-down
[2] = target: T2, p97 (valosin-containing protein); assay: co-IP

Row | Binder | binding result [1] | other results
1 | B1 | – | binding result (His-p47(171–270)): binds
2 | B2 | binds | –
3 | B3 | binds | –
4 | B4 | – | binding result [2]: binds
